{
  "source": "patent US20130171063A1",
  "about": "(LUDWIG INSTITUTE FOR CANCER RESEARCH, published 2013)",
  "key": {"[1]": {"biological_target": "T1, purified truncated c-Met fragment designated 25-567H (human, UniProt P08581 25-567)", "T1 construct": "Produced in transfected CHO-Lec cells; also called c-Met antigen; c-Met Ag", "T1 sequence (P08581 other isoform, or with tags, fused parts or gaps limits assumed)": "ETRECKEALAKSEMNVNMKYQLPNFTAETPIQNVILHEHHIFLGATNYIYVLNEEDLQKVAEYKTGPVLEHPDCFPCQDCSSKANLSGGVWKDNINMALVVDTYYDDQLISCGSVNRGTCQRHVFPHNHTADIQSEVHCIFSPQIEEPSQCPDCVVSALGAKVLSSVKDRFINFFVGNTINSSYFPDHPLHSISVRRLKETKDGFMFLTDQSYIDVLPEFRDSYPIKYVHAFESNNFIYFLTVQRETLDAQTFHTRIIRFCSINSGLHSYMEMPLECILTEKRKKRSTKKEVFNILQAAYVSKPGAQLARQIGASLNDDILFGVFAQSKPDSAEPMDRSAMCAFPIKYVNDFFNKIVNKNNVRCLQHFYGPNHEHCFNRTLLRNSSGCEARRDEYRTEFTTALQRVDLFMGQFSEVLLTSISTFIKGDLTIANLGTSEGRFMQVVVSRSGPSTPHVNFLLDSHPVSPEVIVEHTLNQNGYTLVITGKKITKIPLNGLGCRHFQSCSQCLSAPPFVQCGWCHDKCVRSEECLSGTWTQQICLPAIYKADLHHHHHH", "assay": "ELISA, plate coated with recombinant truncated c-Met antigen", "experimental": "Following incubation, the supernatant was removed and the wells washed twice with wash buffer 0.05% Tween20-PBS, this was followed by a 1 hour block at room temperature with 3% FCS/PBS at 230 μl/well. The wells were then washed one with wash buffer (0.05% Tween 2-PBS) and rinsed with PBS. 100 μl of sample (hybridoma supernatant) was then added to each well and the plate incubated at room temperature for 1 hour. This was followed by a 4× wash with wash buffer (0.05% Tween 2-PBS) and rinse with PBS. 100 μl of goat anti-mouse Ig gamma-AP (Sigma A3438), diluted in wash buffer 1:2000 was then added and allowed to incubate at room temperature for 1 hour. Following the incubation, the wells were washed 4× with wash buffer and rinsed with PBS. The reaction was developed with 100 μl of pNPP (1 mg/ml n diethanolamine-HCL buffer pH 9.6) for 10 mins at room temperature. This was followed by stop solution (3.0 M NaOH, 50 μl/well). The OD was measured at 405 nm."}, "[2]": {"biological_target": "T2, unprocessed c-Met (p170) (human, UniProt P08581 25-1390)", "T2 construct": "whole, on cells; Single-chain precursor, not cleaved at the furin site; also called unprocessed form of c-Met; c-Met precursor", "T2 sequence (P08581 25-1390)": "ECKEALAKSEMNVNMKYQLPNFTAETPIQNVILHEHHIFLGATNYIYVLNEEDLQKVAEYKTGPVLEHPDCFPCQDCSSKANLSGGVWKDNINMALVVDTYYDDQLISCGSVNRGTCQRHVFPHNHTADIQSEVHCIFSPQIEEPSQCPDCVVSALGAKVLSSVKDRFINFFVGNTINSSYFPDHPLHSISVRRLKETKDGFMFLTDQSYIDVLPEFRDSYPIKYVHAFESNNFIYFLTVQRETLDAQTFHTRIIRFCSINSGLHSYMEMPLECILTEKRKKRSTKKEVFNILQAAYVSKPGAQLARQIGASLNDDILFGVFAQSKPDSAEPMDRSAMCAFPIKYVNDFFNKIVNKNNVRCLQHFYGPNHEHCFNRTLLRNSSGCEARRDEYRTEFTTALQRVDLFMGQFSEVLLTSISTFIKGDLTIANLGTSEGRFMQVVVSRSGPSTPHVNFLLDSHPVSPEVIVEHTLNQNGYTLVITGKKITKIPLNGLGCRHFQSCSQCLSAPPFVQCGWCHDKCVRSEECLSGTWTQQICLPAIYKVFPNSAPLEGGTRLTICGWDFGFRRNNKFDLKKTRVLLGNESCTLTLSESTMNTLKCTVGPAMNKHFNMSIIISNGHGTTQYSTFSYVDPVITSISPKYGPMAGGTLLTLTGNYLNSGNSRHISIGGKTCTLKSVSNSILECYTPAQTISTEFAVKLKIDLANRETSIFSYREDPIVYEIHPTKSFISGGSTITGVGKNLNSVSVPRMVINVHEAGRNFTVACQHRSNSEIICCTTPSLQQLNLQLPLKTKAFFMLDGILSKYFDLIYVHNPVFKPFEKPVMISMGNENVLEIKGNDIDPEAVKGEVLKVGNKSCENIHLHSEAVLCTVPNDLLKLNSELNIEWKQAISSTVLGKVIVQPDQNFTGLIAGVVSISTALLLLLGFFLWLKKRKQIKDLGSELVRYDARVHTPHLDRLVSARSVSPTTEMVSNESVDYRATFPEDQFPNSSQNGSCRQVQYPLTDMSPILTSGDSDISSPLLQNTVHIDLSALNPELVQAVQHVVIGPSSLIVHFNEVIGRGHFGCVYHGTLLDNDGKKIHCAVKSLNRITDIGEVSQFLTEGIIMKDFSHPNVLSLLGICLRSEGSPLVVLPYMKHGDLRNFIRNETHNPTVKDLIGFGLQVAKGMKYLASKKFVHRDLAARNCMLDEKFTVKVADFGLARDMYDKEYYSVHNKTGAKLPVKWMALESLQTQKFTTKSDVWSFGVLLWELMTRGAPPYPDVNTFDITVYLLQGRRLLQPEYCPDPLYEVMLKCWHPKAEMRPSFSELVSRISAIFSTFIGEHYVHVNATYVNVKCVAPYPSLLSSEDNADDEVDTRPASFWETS", "assay": "immunoprecipitation from A549 cells, western blot with 25H2 under reducing conditions"}, "[3]": {"biological_target": "T3, c-Met receptor as expressed by human tumor cells (total c-Met) (human, UniProt P08581 25-1390)", "T3 construct": "whole, on cells; also called surface c-Met; HGFR", "T3 sequence (P08581 25-1390)": "as above", "assay": "flow cytometry on A549 cells, PE-conjugated anti-mouse secondary antibody", "text": "The control antibody was a mouse IgG1 isotype matched antibody. An increase in PE signal intensity indicated antibody binding to c-Met."}, "[4]": {"biological_target": "T1, purified truncated c-Met fragment …", "assay": "BIAcore, His6-c-Met 25-567 on Ni-NTA chip, antibody passed over; apparent KD", "text": "The LMH antibodies were passed over the chip at varying concentrations in order to determine apparent affinity (KD). Chips were regenerated with EDTA."}, "[5]": {"biological_target": "T4, peptide 48 (N-terminal biotin)", "T4 peptide": "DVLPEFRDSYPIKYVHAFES", "assay": "ELISA on biotinylated 20-mer c-Met peptides on streptavidin plates, A405 nm, mean ± SEM", "experimental": "(§1) The library consisted of N-terminally biotinylated, 20-mer peptides, overlapping by 15 amino acids and pre-absorbed onto 96-well streptavidin coated plates. LMH antibodies 80 to 89 were added to these plates to determine their reactivity against each single peptide using standard ELISA. Epitopes for each antibody were determined by overlaying the sequences of the peptides which reacted with the antibody, leading to a determination of a core common amino acid sequence.\n(§2) The peptide sequence bound by each antibody was aligned to determine the core epitope."}, "[6]": {"biological_target": "T5, peptide 46 (N-terminal biotin)", "T5 peptide": "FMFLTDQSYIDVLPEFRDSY", "assay": "ELISA on biotinylated 20-mer c-Met peptides on streptavidin plates, A405 nm, mean ± SEM", "experimental": "as §1, §2"}, "[7]": {"biological_target": "T6, peptide 47 (N-terminal biotin)", "T6 peptide": "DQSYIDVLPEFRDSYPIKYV", "assay": "ELISA on biotinylated 20-mer c-Met peptides on streptavidin plates, A405 nm, mean ± SEM", "experimental": "as §1, §2"}, "[8]": {"biological_target": "T7, peptide 25 (N-terminal biotin)", "T7 peptide": "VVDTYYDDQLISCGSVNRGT", "assay": "ELISA on biotinylated 20-mer c-Met peptides on streptavidin plates, A405 nm", "experimental": "as §1, §2"}, "[9]": {"biological_target": "T8, peptide 24 (N-terminal biotin)", "T8 peptide": "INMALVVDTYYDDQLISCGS", "assay": "ELISA on biotinylated 20-mer c-Met peptides on streptavidin plates, A405 nm", "experimental": "as §1, §2"}, "[10]": {"biological_target": "T9, peptide 23 (N-terminal biotin)", "T9 peptide": "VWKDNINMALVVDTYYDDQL", "assay": "ELISA on biotinylated 20-mer c-Met peptides on streptavidin plates, A405 nm", "experimental": "as §1, §2"}},
  "data": [
    {"binder": "antibody LMH 85 (antibody, V domains shown, Mouse monoclonal antibody from a hybridoma) VH: QVQLQQSGAELAKPGASVKMSCKASGYTFIIYWIHWIKQRPGQGLEWIGYINPSNDYTEYNQKFKDKATLTADKSSNTAFMQLSSLTSEDSAVYYCARDSYDYDDGAYAMDYWGQGTSVTVSS VL: QIVLSQSPAILSASPGEKVTMTCRASSGVNYMHWYQQKPGSSPKPWIYATSNLASGVPARFSGSGSGTSYSLTISRVEAEDAATYYCQQWISHPFTFGSGTKLEIK", "values": [
      {"measurement": "binding result", "setting": "[1]", "result": "binds"},
      {"measurement": "binding result", "setting": "[2]", "result": "binds"},
      {"measurement": "binding result", "setting": "[3]", "result": "binds"}
    ]},
    {"binder": "antibody LMH 87 (antibody, V domains shown, Mouse monoclonal antibody from a hybridoma) VH: QVQLQQSGPELVKSGASVKMSCKASGNTLKDDHVHWVKQRPGQGLEWIGWIYPGGGRTRYNEKFKGKTTLTADKPSSTVNMLLSSLTSEDSAIYFCTNLVFDVWGAGTTVTVSS VL: DIVMTQAAPSVPVTPGESVSISCRSSKSLLHSNGNTYLYWFLQRPGQSPQVLIYRMSNLASGVPDRFSGSGSGTAFTLRIRRVEAEDVGVYYCMQNLEYPFTFGGGTKLEIK", "values": [
      {"measurement": "Kd", "setting": "[4]", "result": 2.6, "unit": "nM"},
      {"measurement": "binding result", "setting": "[5]", "result": "binds"},
      {"measurement": "binding result", "setting": "[6]", "result": "binds"},
      {"measurement": "binding result", "setting": "[7]", "result": "binds"}
    ]},
    {"binder": "antibody LMH 82 (antibody, V domains shown, Mouse monoclonal antibody from a hybridoma; also called hybridoma PTA-11406) VH: EVQLQQSGPELVKPGASVKMSCKASGYTFTDYYMKWVKQSHGKNLEWIGDINPNNGGTNYNQKFKGKATLTVDKSSSTAYMQLNSLTSEDSAVYYCARSGYWGQGTTLTVSS VL: DVLMTQTPLSLPVSLGDQASISCRSSQSILHSNGNTYLEWYLQKPGQSPKLLIYKVSNRFSGVPDRFSGSGSGTDFTLKISRVEAEDLGVYYCFQGSHVPWTFGGGTKLEIK", "values": [
      {"measurement": "binding result", "setting": "[8]", "result": "binds"},
      {"measurement": "binding result", "setting": "[9]", "result": "binds"},
      {"measurement": "binding result", "setting": "[10]", "result": "binds"}
    ]}
  ]
}
